Assay in all cases: cell-based or functional assay
Assay [1] addresses CSL627 (recombinant B-Domain-deleted single chain FVIII, rVIII-SingleChain) (Homo sapiens (Human)) (UniProt P00451).
In assay [2] the target is Helixate (rec. FVIII from CSL Behring) (UniProt P00451).
The target in assay [3] is ReFacto (rec. FVIII from Pfizer) (UniProt P00451).
Assay [4] concerns the target Advate (rec. FVIII from Shire) (UniProt P00451).

With “plasma-derived von Willebrand Factor (pdVWF; BIOSTATE, human plasma derived VWF from CSL Behring) (from UniProt P04275 23-2813)”, in assay [1], the IC50, inhibition of factor VIII uptake in MDDCs is 744 nM; the reduction of CSL627 antigen presentation, HLA-DQB1 restricted peptide clusters was found to be 10 fold; the reduction of CSL627 antigen presentation, peptide clusters (printed HLA-DQB1 a second time) was determined as 3.5 fold; the reduction of CSL627 antigen presentation, unique HLA-DPB1 bound peptides is 14.2 fold. For the same substance, the reduction of CSL627 antigen presentation, unique HLA-DQB1 bound peptides in assay [1] worked out at 21.7 fold. Besides, the IC50, inhibition of factor VIII uptake in MDDCs in assay [2] amounted to 823 nM. The same substance gave an IC50, inhibition of factor VIII uptake in MDDCs in assay [3] of 963 nM.

Turning to “CSL650 (rec. VWF-albumin fusion from CSL Behring)”, the IC50, inhibition of factor VIII uptake in MDDCs in assay [4] turned out to be 769 nM; in assay [1] it was 750 nM; in assay [2], 552 nM; in assay [3] it was 778 nM.

As for “CSL626 (truncated VWF (764-1242)-albumin fusion, dimer)”, the IC50, inhibition of factor VIII uptake in MDDCs amounted to 2230 nM in assay [4], 1720 nM in assay [1], 1690 nM in assay [2] and 1570 nM in assay [3].
